How the values were obtained:
GST-α-actinin R2 [1] = molecular target: GST-α-actinin R2 (UniProt P05094); experiment: pull-down; competition: 2 µg GST-α-actinin R2 on glutathione-sepharose, cross-linked with dimethyl pimelimidate; 1 ml of 250 nM His6-GluN1 cytoplasmic domain with increasing amounts of ICAM-5 cytoplasmic domain, RT 1 h; bound His6-GluN1 by western blotting, band intensities fitted to an exponential decay …
GST-α-actinin R1 = experiment: ELISA; conditions: ICAM-5 cytoplasmic domains coated on plates and incubated with GST-α-actinin rod domains; values normalized to the level of BSA binding; parent: est. 0.10; read off a plot
[2] = molecular target: GST-α-actinin R1-R4 (the whole rod domain) (UniProt P05094); experiment: ELISA; conditions: ICAM-5 cytoplasmic domains coated on plates and incubated with GST-α-actinin rod domains; values normalized to the level of BSA binding; parent: est. 0.28; read off a plot
GST-α-actinin R3 = experiment: ELISA; conditions: ICAM-5 cytoplasmic domains coated on plates and incubated with GST-α-actinin rod domains; values normalized to the level of BSA binding; parent: est. 0.072; read off a plot
GST-α-actinin R2 [3] = molecular target: GST-α-actinin R2 (UniProt P05094); experiment: ELISA; conditions: ICAM-5 cytoplasmic domains coated on plates and incubated with GST-α-actinin rod domains; values normalized to the level of BSA binding; parent: est. 0.22; read off a plot
GST-α-actinin R4 = GST-α-actinin R4 (UniProt P05094); experiment: ELISA; conditions: ICAM-5 cytoplasmic domains coated on plates and incubated with GST-α-actinin rod domains; values normalized to the level of BSA binding; parent: est. 0.020; read off a plot

UniProt P05094, sequence (P05094 387-510): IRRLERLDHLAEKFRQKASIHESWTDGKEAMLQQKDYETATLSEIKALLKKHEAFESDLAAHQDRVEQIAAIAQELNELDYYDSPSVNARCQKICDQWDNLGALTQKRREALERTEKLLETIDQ

## ICAM-5 cytoplasmic domain (WT) (from UniProt Q9UMF0 857-924) (domain or fragment)
GST-α-actinin R2 [1]
  IC50: 55 nM

## ICAM-5 cytoplasmic domain (WT) (from UniProt Q9UMF0) K857A; K858A
GST-α-actinin R1
  response: 0.035 A492
[2]
  response: 0.015 A492
GST-α-actinin R3
  response: 0.02 A492
GST-α-actinin R2 [3]
  response: 0.015 A492
GST-α-actinin R4
  response: 0.022 A492

Reference: PMC4365481
